According to the supplement of paper PMC10065799, “High-throughput profiling of sequence recognition by tyrosine kinases and SH2 domains using bacterial peptide display” (eLife, 2023):

target: SHP2-C SH2; assay: SH2 binding enrichment of the phosphorylated peptide, bacterial display (enrichment ratio); higher = better substrate or ligand; peptides without Tyr show the background
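Throughout, for SH2 binding enrichment of the phosphorylated peptide, bacterial display: peptide library displayed on the E. coli surface as eCPX fusions, selected cells deep-sequenced, score is each peptide's frequency after selection divided by its frequency in the input.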
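Throughout, for phosphorylation enrichment, bacterial display: 11-residue human phosphosite peptides and single-mutation variants displayed on the E. coli surface, counted by deep sequencing, each peptide's frequency after selection divided by its frequency in the unselected input library; frequency after pTyr selection over input frequency; kinase dosed for 20-30% of maximal phosphorylation in three min.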

Sequence	SH2 binding enrichment
DEEDFYQGSME [ASCC1_Y36]	0.575
HRGHLYLAIEF [TEK_Y899_Y897H_YF]	0.722
EEQKRYFNAMK [SCN5A_Y1494_K1493R_YF]	1
EEGESHVCSSD [DCX_Y125_Y125H]	0.83
DFPGNYSGFDD [POLR1C_Y33_YF]	0.815
KPSLKYVTYGN [GALNTL5_Y404_G401S]	0.985
KYRREYILSLE [GPC3_Y299_W296R]	0.606
IETGRYEILTE	0.697
KELAPYDENCF [RPS19_Y48_W52C]	0.803
YENGEYIVRQG [PRKG1_Y247_I249V]	1.14
AAFNRYDQERF [CDC73_Y293_YF]	0.549
RFLRGYEQDAY [HLA-A_Y137_R138E]	0.87
KPGVNYYFRVS	0.977
RISGVYKLPPD [ANGPTL7_Y145]	0.857
KHCEDYVCSYN [DSC1_Y846]	0.874
MAQDIYRASFF [ALK_Y1278_R1275Q_YF]	0.738
GHMYAYDWISI [BEST1_Y227_L224M]	1.82

Sequence	SH2 binding enrichment
PECEWYKNGVK [TTN_Y2112]	0.472
SNYRAYATEPH [TNNI3_Y29]	0.551
VPDTNYTSDEE [STK33_Y439_A437T]	0.811
KKRSVYLKVLF [CC2D2A_Y683]	0.983
KMGNEYVTKGQ [MYH7_Y410_V406M]	0.576
QLCVSYPGGYT [PROS1_Y259_N258S]	0.784
QKINKYLTVPA [SLC9A1_Y683_N682K]	0.813
SLALFYRNVYH [RBL1_Y792_K794N]	0.566
EVQKDYEHLFK [PAM16_Y77_N76D]	0.662
CNNFIYGGCRG [SPINT2_Y163]	0.984
SRVTQYERDFE [SNX1_Y463]	0.77
HQEPVCSVAFS [TBL1X_Y509_Y509C]	0.591
GRPMDYQVSIT [OTOF_Y254]	0.656
FQEPVYSVAFS [TBL1X_Y509_H504Y_YF]	0.926
LNLKEYNLVGG [GNAQ_Y356]	0.844
NQDRTYFESVR [SPEN_Y632_YF]	0.727

target: c-Src SH2; assay: as above

Sequence	SH2 binding enrichment
DEEDFYQGSME [ASCC1_Y36]	0.427
HRGHLYLAIEF [TEK_Y899_Y897H_YF]	0.571
EEQKRYFNAMK [SCN5A_Y1494_K1493R_YF]	0.541
EEGESHVCSSD [DCX_Y125_Y125H]	0.623
DFPGNYSGFDD [POLR1C_Y33_YF]	0.806
KPSLKYVTYGN [GALNTL5_Y404_G401S]	0.836
KYRREYILSLE [GPC3_Y299_W296R]	0.374
IETGRYEILTE	21.6
KELAPYDENCF [RPS19_Y48_W52C]	1.32
YENGEYIVRQG [PRKG1_Y247_I249V]	8.91
AAFNRYDQERF [CDC73_Y293_YF]	0.448
RFLRGYEQDAY [HLA-A_Y137_R138E]	0.981
KPGVNYYFRVS	0.624
RISGVYKLPPD [ANGPTL7_Y145]	0.525
KHCEDYVCSYN [DSC1_Y846]	1.05
MAQDIYRASFF [ALK_Y1278_R1275Q_YF]	0.456
GHMYAYDWISI [BEST1_Y227_L224M]	2.41

Sequence	SH2 binding enrichment
PECEWYKNGVK [TTN_Y2112]	0.39
SNYRAYATEPH [TNNI3_Y29]	0.378
VPDTNYTSDEE [STK33_Y439_A437T]	0.675
KKRSVYLKVLF [CC2D2A_Y683]	0.679
KMGNEYVTKGQ [MYH7_Y410_V406M]	0.408
QLCVSYPGGYT [PROS1_Y259_N258S]	0.541
QKINKYLTVPA [SLC9A1_Y683_N682K]	0.607
SLALFYRNVYH [RBL1_Y792_K794N]	0.446
EVQKDYEHLFK [PAM16_Y77_N76D]	0.592
CNNFIYGGCRG [SPINT2_Y163]	1.24
SRVTQYERDFE [SNX1_Y463]	0.697
HQEPVCSVAFS [TBL1X_Y509_Y509C]	0.646
GRPMDYQVSIT [OTOF_Y254]	0.456
FQEPVYSVAFS [TBL1X_Y509_H504Y_YF]	0.469
LNLKEYNLVGG [GNAQ_Y356]	1.17
NQDRTYFESVR [SPEN_Y632_YF]	0.555

target: Grb2 SH2 (UniProt P62993); assay: as above
Sequence (P62993 whole entry, looked up): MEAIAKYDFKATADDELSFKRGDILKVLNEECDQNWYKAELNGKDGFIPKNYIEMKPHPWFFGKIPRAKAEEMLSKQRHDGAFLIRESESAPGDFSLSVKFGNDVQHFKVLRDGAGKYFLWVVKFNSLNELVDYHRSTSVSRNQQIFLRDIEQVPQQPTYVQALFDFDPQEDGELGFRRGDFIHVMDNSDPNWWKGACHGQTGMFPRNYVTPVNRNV

Sequence	SH2 binding enrichment
DEEDFYQGSME [ASCC1_Y36]	0.572
HRGHLYLAIEF [TEK_Y899_Y897H_YF]	0.645
EEQKRYFNAMK [SCN5A_Y1494_K1493R_YF]	1.04
EEGESHVCSSD [DCX_Y125_Y125H]	1.25
DFPGNYSGFDD [POLR1C_Y33_YF]	0.839
KPSLKYVTYGN [GALNTL5_Y404_G401S]	1.09
KYRREYILSLE [GPC3_Y299_W296R]	0.774
IETGRYEILTE	0.883
KELAPYDENCF [RPS19_Y48_W52C]	1.24
YENGEYIVRQG [PRKG1_Y247_I249V]	32.9
AAFNRYDQERF [CDC73_Y293_YF]	0.866
RFLRGYEQDAY [HLA-A_Y137_R138E]	1.03
KPGVNYYFRVS	0.755
RISGVYKLPPD [ANGPTL7_Y145]	1.02
KHCEDYVCSYN [DSC1_Y846]	0.913
MAQDIYRASFF [ALK_Y1278_R1275Q_YF]	1.04
GHMYAYDWISI [BEST1_Y227_L224M]	1.6

Sequence	SH2 binding enrichment
PECEWYKNGVK [TTN_Y2112]	0.811
SNYRAYATEPH [TNNI3_Y29]	0.869
VPDTNYTSDEE [STK33_Y439_A437T]	1.23
KKRSVYLKVLF [CC2D2A_Y683]	0.869
KMGNEYVTKGQ [MYH7_Y410_V406M]	0.713
QLCVSYPGGYT [PROS1_Y259_N258S]	0.861
QKINKYLTVPA [SLC9A1_Y683_N682K]	0.958
SLALFYRNVYH [RBL1_Y792_K794N]	0.743
EVQKDYEHLFK [PAM16_Y77_N76D]	0.805
CNNFIYGGCRG [SPINT2_Y163]	1.28
SRVTQYERDFE [SNX1_Y463]	0.854
HQEPVCSVAFS [TBL1X_Y509_Y509C]	1.12
GRPMDYQVSIT [OTOF_Y254]	0.767
FQEPVYSVAFS [TBL1X_Y509_H504Y_YF]	0.812
LNLKEYNLVGG [GNAQ_Y356]	0.783
NQDRTYFESVR [SPEN_Y632_YF]	0.886

target: Fyn (UniProt P06241); assay: phosphorylation enrichment, bacterial display (enrichment ratio); higher = better substrate or ligand; peptides without Tyr show the background
Sequence (P06241 whole entry, looked up): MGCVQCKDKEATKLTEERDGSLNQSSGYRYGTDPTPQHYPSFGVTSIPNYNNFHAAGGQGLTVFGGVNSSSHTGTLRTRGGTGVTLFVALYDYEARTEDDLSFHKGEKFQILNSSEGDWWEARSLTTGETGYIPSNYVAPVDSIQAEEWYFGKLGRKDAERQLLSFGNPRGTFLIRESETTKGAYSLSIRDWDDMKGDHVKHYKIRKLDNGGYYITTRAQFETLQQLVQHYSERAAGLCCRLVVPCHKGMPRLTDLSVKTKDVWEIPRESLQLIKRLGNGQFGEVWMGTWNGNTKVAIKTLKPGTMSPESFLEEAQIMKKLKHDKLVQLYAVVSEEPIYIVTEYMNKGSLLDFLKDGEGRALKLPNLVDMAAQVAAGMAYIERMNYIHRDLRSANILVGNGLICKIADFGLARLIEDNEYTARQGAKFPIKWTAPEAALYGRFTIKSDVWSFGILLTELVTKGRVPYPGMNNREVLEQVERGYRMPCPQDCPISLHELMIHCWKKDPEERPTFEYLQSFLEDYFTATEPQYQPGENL

Sequence	phosphorylation enrichment
DEEDFYQGSME [ASCC1_Y36]	0.598
HRGHLYLAIEF [TEK_Y899_Y897H_YF]	1.49
EEQKRYFNAMK [SCN5A_Y1494_K1493R_YF]	0.348
EEGESHVCSSD [DCX_Y125_Y125H]	0.54
DFPGNYSGFDD [POLR1C_Y33_YF]	0.55
KPSLKYVTYGN [GALNTL5_Y404_G401S]	0.379
KYRREYILSLE [GPC3_Y299_W296R]	0.468
IETGRYEILTE	0.488
KELAPYDENCF [RPS19_Y48_W52C]	0.583
YENGEYIVRQG [PRKG1_Y247_I249V]	0.494
AAFNRYDQERF [CDC73_Y293_YF]	0.469
RFLRGYEQDAY [HLA-A_Y137_R138E]	0.525
KPGVNYYFRVS	0.368
RISGVYKLPPD [ANGPTL7_Y145]	1
KHCEDYVCSYN [DSC1_Y846]	0.502
MAQDIYRASFF [ALK_Y1278_R1275Q_YF]	1.52
GHMYAYDWISI [BEST1_Y227_L224M]	1.89

Sequence	phosphorylation enrichment
PECEWYKNGVK [TTN_Y2112]	0.692
SNYRAYATEPH [TNNI3_Y29]	0.404
VPDTNYTSDEE [STK33_Y439_A437T]	0.56
KKRSVYLKVLF [CC2D2A_Y683]	0.446
KMGNEYVTKGQ [MYH7_Y410_V406M]	0.358
QLCVSYPGGYT [PROS1_Y259_N258S]	0.597
QKINKYLTVPA [SLC9A1_Y683_N682K]	0.461
SLALFYRNVYH [RBL1_Y792_K794N]	0.419
EVQKDYEHLFK [PAM16_Y77_N76D]	0.478
CNNFIYGGCRG [SPINT2_Y163]	3.89
SRVTQYERDFE [SNX1_Y463]	0.46
HQEPVCSVAFS [TBL1X_Y509_Y509C]	0.658
GRPMDYQVSIT [OTOF_Y254]	0.403
FQEPVYSVAFS [TBL1X_Y509_H504Y_YF]	11.8
LNLKEYNLVGG [GNAQ_Y356]	0.529
NQDRTYFESVR [SPEN_Y632_YF]	0.571
